Test [1] addresses T1, Jun-anti-AFP antibody binding to the Fos-coated microtiter plate (FBJ murine osteosarcoma virus, UniProt P01102).
T1 construct: host or cells: synthetic peptides; conjugate made in house
In words: Inhibition of the Jun-anti-AFP antibody binding to the Fos-coated microtiter plate by addition of free peptide. The protocol:
100 μl portions of a Jun peptide-anti-AFP antibody conjugate (anti-AFP antibodies from sheep) prepared as in Example 2, Step 3 or 3a are pipetted into the wells of microtiter plates which were coated with Fos peptide as in Example 2, Step 1, and incubated at 37° C. for 2h. After the wells had been washed three times with washing buffer (OSEW, Behringwerke), 20 μl portions of standard or sample and 100 μl of a buffer (OSND, Behringwerke) with the addition of peroxidase-conjugated anti-AFP antibodies from sheep were introduced. The two-hour incubation at 37° C. is again stopped with a washing step (see above), and the substrate/chromogen reaction is carried out as in Example 2, Step 4.
The Jun/Fos AFP assay described hereinbefore was preceded by an incubation step with 100 μl in each case of a Jun or Fos peptide-containing buffer solution (buffer=OSND) per well at 37° C. for one hour. After 3 washes, the subsequent assay procedure was as specified above.

Test [2] addresses c-Jun "leucine zipper peptide" (SEQ ID No1) (Homo sapiens, UniProt P05412). The following applies: cited from earlier work.

For “LTDTLQAETDQLEDKKSALQTEIANLLKEKEKLEFILAAY [Fos, synthetic peptide comprising positions 162 to 201, the leucine zipper of the v-Fos protein]”, the “Measured signal (extinction 450 nm) Standard S0 (0 IU AFP/ml)” value in test [1] (free peptide 5 μg/ml) is given as 0.010; in test [1] (free peptide 50 μg/ml), 0.011; in test [1] (free peptide 500 μg/ml), 0.015. The figures for the “Measured signal (extinction 450 nm) Standard S5 (300 IU AFP/ml)” value in test [1] (free peptide 5 μg/ml), in test [1] (free peptide 50 μg/ml) and in test [1] (free peptide 500 μg/ml) were 3.416, 3.572 and 3.694, respectively. Moreover, the “heterodimeric complexes with the c-Jun "leucine zipper peptide"” value in test [2] is “forms very stable heterodimeric complexes”.
On to “RIARLEEKVKTLKAQNSELASTANMLREQVAQLKQKVMNY [Jun, synthetic peptide comprising amino-acid positions 285 to 324, the so-called leucine zipper of the c-Jun protein]”, for which the “inhibition of the binding of Jun-anti-AFP antibody to the Fos-coated solid phase” value in test [1] (addition of free peptide) is recorded as “possible to inhibit the binding”. Besides, the “Measured signal (extinction 450 nm) Standard S0 (0 IU AFP/ml)” value is 0.015 in test [1] (free peptide 5 μg/ml), 0.011 in test [1] (free peptide 50 μg/ml) and 0.013 in test [1] (free peptide 500 μg/ml). Also, the “Measured signal (extinction 450 nm) Standard S5 (300 IU AFP/ml)” value came out at 3.486 in test [1] (free peptide 5 μg/ml), 2.857 in test [1] (free peptide 50 μg/ml) and 1.371 in test [1] (free peptide 500 μg/ml).

(Values after patent publication US5643731A, “Use of pairs of leucine zipper peptides in immunoassay methods” (Behringwerke Aktiengesellschaft, priority 1990, dated 1997).)
